B1: LATS1 PPxY2 peptide mutant Q to A (peptide)
peptide: NYAGPPPPYPKH
notes: LATS1 PPxY2 peptide aa 551-562 with the Q at P1-3 changed to A; also called PPxY2m; PPxY2 Q→A; source: synthetic peptide, bought: GL BioChem
B2: YAP2 WW12 (both WW domains; aa 163-266) (domain or fragment, human, UniProt P46937-2 163-266, looked up)
chain: SSFEIPDDVPLPAGWEMAKTSSGQRYFLNHIDQTTTWQDPRKAMLSQMNVTAPTSPPVQQNMMNSASGPLPDGWEQAMTQDGEIYYINHKNKTTSWLDPRLDPR
notes: YES-associated protein, isoform YAP2 (YAP1-2), human, both WW domains, aa 163-266; cloned into pGEX-6P-1; 15N-labelled in one of the NMR titrations; source: also co-expressed with PY12 and co-purified
B3: LATS1 PPxY1 peptide mutant R to A (peptide)
peptide: NAQPPPPYPLTA
notes: also called PPxY1m; PPxY1R→A; source: synthetic peptide, bought: GL BioChem

How the values were obtained:
[1] = biological target: T1, YAP2 WW1 domain (aa 163-206) (human, UniProt P46937-2 163-206); assay: ITC; protein 20 to 70 uM titrated against peptide 0.5 to 1.8 mM, 25°C, 20 mM Tris-HCl pH 7.0, 100 mM NaCl; single ligand binding site model; conditions: both partners purified
T1 construct: YES-associated protein, isoform YAP2 (YAP1-2, two WW domains), human, first WW domain, aa 163-206; cloned into pGEX-6P-1

[2] = biological target: T2, LATS1 PY12 (both PPxY motifs; aa 361-567) (UniProt O95835 361-567); assay: ITC; WW12 vs PY12; 20 mM Tris-HCl pH 7.0, 100 mM NaCl, 3% glycerol, 2 mM DTT, 2 mM EDTA; single ligand binding site model; conditions: both partners purified
T2 construct: LATS1, region with both PPxY motifs, aa 361-567; cloned into pACYC; 15N-labelled in one of the NMR titrations; source: E. coli BL21 (DE3), purified
T2 sequence (looked up): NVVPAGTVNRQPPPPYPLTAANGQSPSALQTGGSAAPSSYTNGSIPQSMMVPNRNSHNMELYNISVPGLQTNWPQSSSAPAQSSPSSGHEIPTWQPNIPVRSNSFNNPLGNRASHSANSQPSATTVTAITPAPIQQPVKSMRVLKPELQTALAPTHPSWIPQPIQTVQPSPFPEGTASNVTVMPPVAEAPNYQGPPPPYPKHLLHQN

Binder | Kd [1] | Kd [2]
B1 | 4.4 µM | –
B2 | – | 9.6 µM
B3 | 14 µM | –

Source: publication PMC5814282, “Biophysical studies and NMR structure of YAP2 WW domain - LATS1 PPxY motif complexes reveal the basis of their interaction” (Oncotarget, 2018)
